Results on 91 substances are retold here after the Human Domainome abundance scans (Beltran et al. 2025).

± gives the uncertainty stated by the source.

The data set can be described thus: abundance fitness (aPCA) (normalised: wild type 0, dead -1); higher = more abundant; growth selection in yeast, the domain comes from the species named. The following applies: Homo sapiens.
In turn, “DnaJ homolog subfamily B member 1 A12C, P25685” registered an abundance fitness of -0.213 ± 0.14.

As for “DnaJ homolog subfamily B member 1 A12D, P25685”, the abundance fitness was -0.38 ± 0.11. Consider “DnaJ homolog subfamily B member 1 A12E, P25685”, for which the abundance fitness was -0.277 ± 0.13.

“DnaJ homolog subfamily B member 1 A12F, P25685” registered an abundance fitness of -0.346 ± 0.092. Turning to “DnaJ homolog subfamily B member 1 A12G, P25685”, the abundance fitness was -0.421 ± 0.1. The substance “DnaJ homolog subfamily B member 1 A12H, P25685” gave an abundance fitness of -0.175 ± 0.15. “DnaJ homolog subfamily B member 1 A12I, P25685” yielded an abundance fitness of -0.163 ± 0.11.

On to “DnaJ homolog subfamily B member 1 A12K, P25685”, for which the abundance fitness was -0.02 ± 0.077. The result for “DnaJ homolog subfamily B member 1 A12L, P25685” reads -0.179 ± 0.068; that for “DnaJ homolog subfamily B member 1 A12M, P25685”, -0.139 ± 0.067.

The substance “DnaJ homolog subfamily B member 1 A12N, P25685” showed an abundance fitness of -0.147 ± 0.089. Substance “DnaJ homolog subfamily B member 1 A12P, P25685” came in with an abundance fitness of -0.108 ± 0.12. The figure for “DnaJ homolog subfamily B member 1 A12Q, P25685” is -0.094 ± 0.094. In turn, “DnaJ homolog subfamily B member 1 A12R, P25685” displayed an abundance fitness of -0.147 ± 0.07. In turn, “DnaJ homolog subfamily B member 1 A12S, P25685” had an abundance fitness of -0.191 ± 0.078. “DnaJ homolog subfamily B member 1 A12T, P25685” registered an abundance fitness of -0.28 ± 0.088. For the substance “DnaJ homolog subfamily B member 1 A12V, P25685”, the abundance fitness is -0.145 ± 0.08. Regarding “DnaJ homolog subfamily B member 1 A12Y, P25685”, the abundance fitness was -0.559 ± 0.46.

Consider “DnaJ homolog subfamily B member 1 A15C, P25685”, for which the abundance fitness is -0.056 ± 0.14.

For the substance “DnaJ homolog subfamily B member 1 A15D, P25685”, the abundance fitness was -0.502 ± 0.092. The substance “DnaJ homolog subfamily B member 1 A15E, P25685” displayed an abundance fitness of -0.481 ± 0.068.

The substance “DnaJ homolog subfamily B member 1 A15F, P25685” showed an abundance fitness of -0.814 ± 0.13. The result for “DnaJ homolog subfamily B member 1 A15H, P25685” reads -0.866 ± 0.15.

As for “DnaJ homolog subfamily B member 1 A15I, P25685”, the abundance fitness is -0.69 ± 0.14. The figure for “DnaJ homolog subfamily B member 1 A15K, P25685” is -0.818 ± 0.096. In the case of “DnaJ homolog subfamily B member 1 A15L, P25685”, the abundance fitness was -0.801 ± 0.071. “DnaJ homolog subfamily B member 1 A15M, P25685” came in with an abundance fitness of -0.627 ± 0.1. Regarding “DnaJ homolog subfamily B member 1 A15N, P25685”, the abundance fitness was -0.668 ± 0.14.

“DnaJ homolog subfamily B member 1 A15P, P25685” displayed an abundance fitness of -0.702 ± 0.098. The figure for “DnaJ homolog subfamily B member 1 A15Q, P25685” is -0.648 ± 0.12; for “DnaJ homolog subfamily B member 1 A15R, P25685” it is -0.82 ± 0.055; for “DnaJ homolog subfamily B member 1 A15S, P25685” it is -0.109 ± 0.074.

In the case of “DnaJ homolog subfamily B member 1 A15T, P25685”, the abundance fitness is -0.271 ± 0.078. With “DnaJ homolog subfamily B member 1 A15W, P25685”, the abundance fitness was -1.17 ± 0.085. The figure for “DnaJ homolog subfamily B member 1 A15Y, P25685” is -1 ± 0.16. Consider “DnaJ homolog subfamily B member 1 A23C, P25685”, for which the abundance fitness was -0.169 ± 0.11. The figure for “DnaJ homolog subfamily B member 1 A23D, P25685” is -0.852 ± 0.22. The result for “DnaJ homolog subfamily B member 1 A23E, P25685” reads -0.149 ± 0.086. The figure for “DnaJ homolog subfamily B member 1 A23F, P25685” is -0.816 ± 0.1; for “DnaJ homolog subfamily B member 1 A23G, P25685” it is -0.184 ± 0.08; for “DnaJ homolog subfamily B member 1 A23H, P25685” it is -0.312 ± 0.14. In the case of “DnaJ homolog subfamily B member 1 A23I, P25685”, the abundance fitness is -0.819 ± 0.11. The substance “DnaJ homolog subfamily B member 1 A23K, P25685” showed an abundance fitness of -0.612 ± 0.11. In the case of “DnaJ homolog subfamily B member 1 A23L, P25685”, the abundance fitness is -0.839 ± 0.053.

“DnaJ homolog subfamily B member 1 A23M, P25685”: the abundance fitness was -0.328 ± 0.068. The result for “DnaJ homolog subfamily B member 1 A23N, P25685” reads -0.169 ± 0.12; that for “DnaJ homolog subfamily B member 1 A23P, P25685”, -0.917 ± 0.095. Regarding “DnaJ homolog subfamily B member 1 A23Q, P25685”, the abundance fitness was -0.241 ± 0.13. The figure for “DnaJ homolog subfamily B member 1 A23R, P25685” is -0.442 ± 0.066; for “DnaJ homolog subfamily B member 1 A23S, P25685” it is -0.159 ± 0.056. The figure for “DnaJ homolog subfamily B member 1 A23T, P25685” is -0.339 ± 0.11; for “DnaJ homolog subfamily B member 1 A23W, P25685” it is -0.984 ± 0.09. “DnaJ homolog subfamily B member 1 A23Y, P25685” came in with an abundance fitness of -0.665 ± 0.097. The figure for “DnaJ homolog subfamily B member 1 A28D, P25685” is -0.521 ± 0.21; for “DnaJ homolog subfamily B member 1 A28E, P25685” it is -0.116 ± 0.12; for “DnaJ homolog subfamily B member 1 A28F, P25685” it is 0.079 ± 0.14. In the case of “DnaJ homolog subfamily B member 1 A28G, P25685”, the abundance fitness is -0.106 ± 0.086. In the case of “DnaJ homolog subfamily B member 1 A28I, P25685”, the abundance fitness is 0.093 ± 0.095. “DnaJ homolog subfamily B member 1 A28K, P25685” had an abundance fitness of -0.149 ± 0.083. The figure for “DnaJ homolog subfamily B member 1 A28L, P25685” is -0.032 ± 0.065; for “DnaJ homolog subfamily B member 1 A28M, P25685” it is -0.06 ± 0.088. “DnaJ homolog subfamily B member 1 A28N, P25685”: the abundance fitness was -0.119 ± 0.12. As for “DnaJ homolog subfamily B member 1 A28P, P25685”, the abundance fitness is -0.953 ± 0.16. The result for “DnaJ homolog subfamily B member 1 A28Q, P25685” reads 0.084 ± 0.16; that for “DnaJ homolog subfamily B member 1 A28R, P25685”, 0.033 ± 0.09.

“DnaJ homolog subfamily B member 1 A28S, P25685” had an abundance fitness of -0.172 ± 0.11.

With “DnaJ homolog subfamily B member 1 A28T, P25685”, the abundance fitness is -0.094 ± 0.1. Regarding “DnaJ homolog subfamily B member 1 A28V, P25685”, the abundance fitness was found to be 0.043 ± 0.081. “DnaJ homolog subfamily B member 1 A28W, P25685” had an abundance fitness of 0.024 ± 0.11. With “DnaJ homolog subfamily B member 1 A28Y, P25685”, the abundance fitness was found to be 0.007 ± 0.14.

In the case of “DnaJ homolog subfamily B member 1 A41D, P25685”, the abundance fitness was -0.036 ± 0.13. The substance “DnaJ homolog subfamily B member 1 A41E, P25685” came in with an abundance fitness of -0.009 ± 0.11.

As to “DnaJ homolog subfamily B member 1 A41F, P25685”, the abundance fitness was -0.128 ± 0.25. The substance “DnaJ homolog subfamily B member 1 A41G, P25685” registered an abundance fitness of -0.104 ± 0.067. For the substance “DnaJ homolog subfamily B member 1 A41H, P25685”, the abundance fitness was -0.24 ± 0.096.

On to “DnaJ homolog subfamily B member 1 A41I, P25685”, for which the abundance fitness was -0.132 ± 0.17. With “DnaJ homolog subfamily B member 1 A41K, P25685”, the abundance fitness is -0.178 ± 0.092. “DnaJ homolog subfamily B member 1 A41L, P25685” had an abundance fitness of -0.168 ± 0.066. In the case of “DnaJ homolog subfamily B member 1 A41M, P25685”, the abundance fitness was -0.214 ± 0.089. In the case of “DnaJ homolog subfamily B member 1 A41N, P25685”, the abundance fitness was -0.164 ± 0.17. For the substance “DnaJ homolog subfamily B member 1 A41P, P25685”, the abundance fitness was -0.432 ± 0.11. The substance “DnaJ homolog subfamily B member 1 A41Q, P25685” yielded an abundance fitness of -0.134 ± 0.077. The substance “DnaJ homolog subfamily B member 1 A41R, P25685” showed an abundance fitness of -0.181 ± 0.07. The figure for “DnaJ homolog subfamily B member 1 A41S, P25685” is -0.146 ± 0.072; for “DnaJ homolog subfamily B member 1 A41T, P25685” it is -0.055 ± 0.068; for “DnaJ homolog subfamily B member 1 A41V, P25685” it is -0.02 ± 0.075. Substance “DnaJ homolog subfamily B member 1 A41W, P25685” displayed an abundance fitness of -0.255 ± 0.064.

Consider “DnaJ homolog subfamily B member 1 A41Y, P25685”, for which the abundance fitness was -0.631 ± 0.43. The figure for “DnaJ homolog subfamily B member 1 A49C, P25685” is 0.049 ± 0.12; for “DnaJ homolog subfamily B member 1 A49D, P25685” it is -0.086 ± 0.12.

On to “DnaJ homolog subfamily B member 1 A49E, P25685”, for which the abundance fitness amounted to 0.126 ± 0.094.
